For one substance, papillae in the in vivo papillation assay of transposition in E. coli DH5α (quantification for 8 colonies) results are on record in PMC4549789.

In the experiment the target is Escherichia coli β sliding clamp (Escherichia coli) (UniProt P0A988).
Chain of UniProt P0A988 (P0A988 whole entry): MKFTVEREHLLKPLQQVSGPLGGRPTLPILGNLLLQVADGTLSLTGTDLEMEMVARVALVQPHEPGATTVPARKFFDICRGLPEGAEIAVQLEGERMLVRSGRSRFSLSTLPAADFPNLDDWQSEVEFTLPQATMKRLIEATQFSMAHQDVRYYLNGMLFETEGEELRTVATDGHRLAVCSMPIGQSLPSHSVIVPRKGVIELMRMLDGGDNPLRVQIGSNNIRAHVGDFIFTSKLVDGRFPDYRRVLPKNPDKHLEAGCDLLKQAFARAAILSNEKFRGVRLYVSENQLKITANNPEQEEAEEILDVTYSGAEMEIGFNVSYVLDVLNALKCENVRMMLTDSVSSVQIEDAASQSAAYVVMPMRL

Substance “Acidiphilium IS1634 transposase, wild type (enzyme)” displayed a papillae in the in vivo papillation assay of transposition in E. coli DH5α (quantification for 8 colonies) of 3.15.
